Numbered stars: 1 amine (or outer) side, 2 acyl side, 3 side chain; on linkers, the order of the positions; unused ones are H or OH. Bridge positions count the residues as written; N and C are the ends. Side chains are listed from the residue outwards. Ends that are not written are not given here. * marks the point of attachment. C20 diacid = O=C(O)CCCCCCCCCCCCCCCCCCC(=O)*; C18 diacid = O=C(O)CCCCCCCCCCCCCCCCC(=O)*; C16 diacid = O=C(O)CCCCCCCCCCCCCCC(=O)*; γGlu = O=C(O)[C@H](CCC(=O)[*:2])N[*:1]; C14 diacid = O=C(O)CCCCCCCCCCCCC(=O)*; AEEA = NCCOCCOCC(=O)O
T1: human calcitonin receptor (human, UniProt P30988 25-474)
T1 sequence (looked up): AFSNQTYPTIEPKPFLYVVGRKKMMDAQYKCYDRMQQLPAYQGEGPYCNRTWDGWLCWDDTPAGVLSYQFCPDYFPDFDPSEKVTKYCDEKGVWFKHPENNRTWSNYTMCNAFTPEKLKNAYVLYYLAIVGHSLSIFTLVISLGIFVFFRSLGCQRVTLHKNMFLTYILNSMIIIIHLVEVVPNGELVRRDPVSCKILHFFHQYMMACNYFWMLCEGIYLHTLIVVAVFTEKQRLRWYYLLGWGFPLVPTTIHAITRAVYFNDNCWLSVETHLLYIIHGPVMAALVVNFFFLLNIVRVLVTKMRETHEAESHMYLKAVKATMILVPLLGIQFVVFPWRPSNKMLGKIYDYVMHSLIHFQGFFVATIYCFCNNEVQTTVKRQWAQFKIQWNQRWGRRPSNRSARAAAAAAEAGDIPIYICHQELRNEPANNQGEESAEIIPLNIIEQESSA

B1: N^ε1-[2-[2-[2-[[2-[2-[2-[[(4S)-4-carboxy-4-(19-carboxynonadecanoylamino)butanoyl]amino]ethoxy]ethoxy]acetyl]amino]ethoxy]ethoxy]acetyl]-[Arg17,Pro21,Pro27,His34 … (peptide)
peptide: K([AEEA-AEEA-γGlu-C20 diacid])CNTATCATQRLANFLRHSSPNFGAIPSSTNVGHNTY-NH2
modifications: disulfide 2-7; N-terminus assumed
SMILES: CC[C@H](C)[C@H](NC(=O)[C@H](C)NC(=O)CNC(=O)[C@H](Cc1ccccc1)NC(=O)[C@H](CC(N)=O)NC(=O)[C@@H]1CCCN1C(=O)[C@H](CO)NC(=O)[C@H](CO)NC(=O)[C@H](Cc1c[nH]cn1)NC(=O)[C@H](CCCNC(=N)N)NC(=O)[C@H](CC(C)C)NC(=O)[C@H](Cc1ccccc1)NC(=O)[C@H](CC(N)=O)NC(=O)[C@H](C)NC(=O)[C@H](CC(C)C)NC(=O)[C@H](CCCNC(=N)N)NC(=O)[C@H](CCC(N)=O)NC(=O)[C@@H](NC(=O)[C@H](C)NC(=O)[C@@H]1CSSC[C@H](NC(=O)[C@@H](N)CCCCNC(=O)COCCOCCNC(=O)COCCOCCNC(=O)CC[C@H](NC(=O)CCCCCCCCCCCCCCCCCCC(=O)O)C(=O)O)C(=O)N[C@@H](CC(N)=O)C(=O)N[C@@H]([C@@H](C)O)C(=O)N[C@@H](C)C(=O)N[C@@H]([C@@H](C)O)C(=O)N1)[C@@H](C)O)C(=O)N1CCC[C@H]1C(=O)N[C@@H](CO)C(=O)N[C@@H](CO)C(=O)N[C@H](C(=O)N[C@@H](CC(N)=O)C(=O)N[C@H](C(=O)NCC(=O)N[C@@H](Cc1c[nH]cn1)C(=O)N[C@@H](CC(N)=O)C(=O)N[C@H](C(=O)N[C@@H](Cc1ccc(O)cc1)C(N)=O)[C@@H](C)O)C(C)C)[C@@H](C)O
notes: synthetic peptide amide; also called compound 97
B2: N^ε1-[(4S)-4-carboxy-4-(15-carboxypentadecanoylamino)butanoyl]-[Arg17,Pro21,Pro27,His34]-h-amylin (peptide)
peptide: K([γGlu-C16 diacid])CNTATCATQRLANFLRHSSPNFGAIPSSTNVGHNTY-NH2
modifications: disulfide 2-7; N-terminus assumed
SMILES: CC[C@H](C)[C@H](NC(=O)[C@H](C)NC(=O)CNC(=O)[C@H](Cc1ccccc1)NC(=O)[C@H](CC(N)=O)NC(=O)[C@@H]1CCCN1C(=O)[C@H](CO)NC(=O)[C@H](CO)NC(=O)[C@H](Cc1c[nH]cn1)NC(=O)[C@H](CCCNC(=N)N)NC(=O)[C@H](CC(C)C)NC(=O)[C@H](Cc1ccccc1)NC(=O)[C@H](CC(N)=O)NC(=O)[C@H](C)NC(=O)[C@H](CC(C)C)NC(=O)[C@H](CCCNC(=N)N)NC(=O)[C@H](CCC(N)=O)NC(=O)[C@@H](NC(=O)[C@H](C)NC(=O)[C@@H]1CSSC[C@H](NC(=O)[C@@H](N)CCCCNC(=O)CC[C@H](NC(=O)CCCCCCCCCCCCCCC(=O)O)C(=O)O)C(=O)N[C@@H](CC(N)=O)C(=O)N[C@@H]([C@@H](C)O)C(=O)N[C@@H](C)C(=O)N[C@@H]([C@@H](C)O)C(=O)N1)[C@@H](C)O)C(=O)N1CCC[C@H]1C(=O)N[C@@H](CO)C(=O)N[C@@H](CO)C(=O)N[C@H](C(=O)N[C@@H](CC(N)=O)C(=O)N[C@H](C(=O)NCC(=O)N[C@@H](Cc1c[nH]cn1)C(=O)N[C@@H](CC(N)=O)C(=O)N[C@H](C(=O)N[C@@H](Cc1ccc(O)cc1)C(N)=O)[C@@H](C)O)C(C)C)[C@@H](C)O
notes: synthetic peptide amide
B3: N^ε1-[2-[2-[2-[[2-[2-[2-[[(4S)-4-carboxy-4-(19-carboxynonadecanoylamino)butanoyl]amino]ethoxy]ethoxy]acetyl]amino]ethoxy]ethoxy]acetyl]-[Arg17,Pro21,Pro27,Pro34 … (peptide)
peptide: K([AEEA-AEEA-γGlu-C20 diacid])CNTATCATQRLANFLRHSSPNFGAIPSSTNVGPNTY-NH2
modifications: disulfide 2-7; N-terminus assumed
SMILES: CC[C@H](C)[C@H](NC(=O)[C@H](C)NC(=O)CNC(=O)[C@H](Cc1ccccc1)NC(=O)[C@H](CC(N)=O)NC(=O)[C@@H]1CCCN1C(=O)[C@H](CO)NC(=O)[C@H](CO)NC(=O)[C@H](Cc1c[nH]cn1)NC(=O)[C@H](CCCNC(=N)N)NC(=O)[C@H](CC(C)C)NC(=O)[C@H](Cc1ccccc1)NC(=O)[C@H](CC(N)=O)NC(=O)[C@H](C)NC(=O)[C@H](CC(C)C)NC(=O)[C@H](CCCNC(=N)N)NC(=O)[C@H](CCC(N)=O)NC(=O)[C@@H](NC(=O)[C@H](C)NC(=O)[C@@H]1CSSC[C@H](NC(=O)[C@@H](N)CCCCNC(=O)COCCOCCNC(=O)COCCOCCNC(=O)CC[C@H](NC(=O)CCCCCCCCCCCCCCCCCCC(=O)O)C(=O)O)C(=O)N[C@@H](CC(N)=O)C(=O)N[C@@H]([C@@H](C)O)C(=O)N[C@@H](C)C(=O)N[C@@H]([C@@H](C)O)C(=O)N1)[C@@H](C)O)C(=O)N1CCC[C@H]1C(=O)N[C@@H](CO)C(=O)N[C@@H](CO)C(=O)N[C@H](C(=O)N[C@@H](CC(N)=O)C(=O)N[C@H](C(=O)NCC(=O)N1CCC[C@H]1C(=O)N[C@@H](CC(N)=O)C(=O)N[C@H](C(=O)N[C@@H](Cc1ccc(O)cc1)C(N)=O)[C@@H](C)O)C(C)C)[C@@H](C)O
notes: synthetic peptide amide; also called compound 98
B4: N^ε1-[(4S)-4-carboxy-4-(17-carboxyheptadecanoylamino)butanoyl]-[Arg17,Pro21,Pro27,His34]-h-amylin (peptide)
peptide: K([γGlu-C18 diacid])CNTATCATQRLANFLRHSSPNFGAIPSSTNVGHNTY-NH2
modifications: disulfide 2-7; N-terminus assumed
SMILES: CC[C@H](C)[C@H](NC(=O)[C@H](C)NC(=O)CNC(=O)[C@H](Cc1ccccc1)NC(=O)[C@H](CC(N)=O)NC(=O)[C@@H]1CCCN1C(=O)[C@H](CO)NC(=O)[C@H](CO)NC(=O)[C@H](Cc1c[nH]cn1)NC(=O)[C@H](CCCNC(=N)N)NC(=O)[C@H](CC(C)C)NC(=O)[C@H](Cc1ccccc1)NC(=O)[C@H](CC(N)=O)NC(=O)[C@H](C)NC(=O)[C@H](CC(C)C)NC(=O)[C@H](CCCNC(=N)N)NC(=O)[C@H](CCC(N)=O)NC(=O)[C@@H](NC(=O)[C@H](C)NC(=O)[C@@H]1CSSC[C@H](NC(=O)[C@@H](N)CCCCNC(=O)CC[C@H](NC(=O)CCCCCCCCCCCCCCCCC(=O)O)C(=O)O)C(=O)N[C@@H](CC(N)=O)C(=O)N[C@@H]([C@@H](C)O)C(=O)N[C@@H](C)C(=O)N[C@@H]([C@@H](C)O)C(=O)N1)[C@@H](C)O)C(=O)N1CCC[C@H]1C(=O)N[C@@H](CO)C(=O)N[C@@H](CO)C(=O)N[C@H](C(=O)N[C@@H](CC(N)=O)C(=O)N[C@H](C(=O)NCC(=O)N[C@@H](Cc1c[nH]cn1)C(=O)N[C@@H](CC(N)=O)C(=O)N[C@H](C(=O)N[C@@H](Cc1ccc(O)cc1)C(N)=O)[C@@H](C)O)C(C)C)[C@@H](C)O
notes: synthetic peptide amide
B5: N^ε1-[(4S)-4-carboxy-4-(13-carboxytridecanoylamino)butanoyl]-[Arg17,Pro21,Pro27,His34]-h-amylin (peptide)
peptide: K([γGlu-C14 diacid])CNTATCATQRLANFLRHSSPNFGAIPSSTNVGHNTY-NH2
modifications: disulfide 2-7; N-terminus assumed
SMILES: CC[C@H](C)[C@H](NC(=O)[C@H](C)NC(=O)CNC(=O)[C@H](Cc1ccccc1)NC(=O)[C@H](CC(N)=O)NC(=O)[C@@H]1CCCN1C(=O)[C@H](CO)NC(=O)[C@H](CO)NC(=O)[C@H](Cc1c[nH]cn1)NC(=O)[C@H](CCCNC(=N)N)NC(=O)[C@H](CC(C)C)NC(=O)[C@H](Cc1ccccc1)NC(=O)[C@H](CC(N)=O)NC(=O)[C@H](C)NC(=O)[C@H](CC(C)C)NC(=O)[C@H](CCCNC(=N)N)NC(=O)[C@H](CCC(N)=O)NC(=O)[C@@H](NC(=O)[C@H](C)NC(=O)[C@@H]1CSSC[C@H](NC(=O)[C@@H](N)CCCCNC(=O)CC[C@H](NC(=O)CCCCCCCCCCCCC(=O)O)C(=O)O)C(=O)N[C@@H](CC(N)=O)C(=O)N[C@@H]([C@@H](C)O)C(=O)N[C@@H](C)C(=O)N[C@@H]([C@@H](C)O)C(=O)N1)[C@@H](C)O)C(=O)N1CCC[C@H]1C(=O)N[C@@H](CO)C(=O)N[C@@H](CO)C(=O)N[C@H](C(=O)N[C@@H](CC(N)=O)C(=O)N[C@H](C(=O)NCC(=O)N[C@@H](Cc1c[nH]cn1)C(=O)N[C@@H](CC(N)=O)C(=O)N[C@H](C(=O)N[C@@H](Cc1ccc(O)cc1)C(N)=O)[C@@H](C)O)C(C)C)[C@@H](C)O
notes: synthetic peptide amide

molecular target: T1, human calcitonin receptor; assay: cell-based or functional assay

hCTR funct. EC50 (pM)	Binder
11800 pM	B1
2210 pM	B2
1630 pM	B3
5850 pM	B4
1090 pM	B5
